Here are results for two molecules from patent US20210252069A1 (published 2021).

In the test the target is T1, IL13Rα2 (human, UniProt Q14627 27-380).
T1 construct: whole, on cells; Endogenous target on U87 cells; also called IL-13Ra2; IL13Ra2
T1 sequence (looked up): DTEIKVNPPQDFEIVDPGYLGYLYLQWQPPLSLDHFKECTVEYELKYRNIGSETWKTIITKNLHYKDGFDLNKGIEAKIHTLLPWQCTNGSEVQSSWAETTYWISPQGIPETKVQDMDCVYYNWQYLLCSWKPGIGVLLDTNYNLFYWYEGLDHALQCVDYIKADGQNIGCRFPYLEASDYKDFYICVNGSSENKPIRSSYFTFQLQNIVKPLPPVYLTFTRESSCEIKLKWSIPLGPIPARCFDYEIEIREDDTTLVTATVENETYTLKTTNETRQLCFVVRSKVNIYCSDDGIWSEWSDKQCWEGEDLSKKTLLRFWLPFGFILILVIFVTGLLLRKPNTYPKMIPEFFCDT
Put plainly: inferred by the filing from LDH cytotoxicity of CAR-T cells on U87 (IL13Rα2+) versus 293FT (IL13Rα2-) cells. As to the method: In order to measure the cytotoxicity of IL13Rα2-specific CAR-T cells prepared in Example 2 (#1, #2, #5, #6, #7, #8, #11, or #12), cytotoxicity assay was performed using an LDH (Promega) kit. Specifically, CAR-T cells (effector cells) were used 10 days after activation of the cells with an anti-CD3 Ab, and the CAR-T cells (having a CAR expression rate of 20% to 40%) were added to a 6-well plate at a ratio 1:2, in which effector:target was 1×10⁶ cells:2×10⁶ cells and reacted at 37° C. for 24 hours.
An analysis was performed to examine whether IL13Rα2-specific CAR-T cells prepared in the present invention can effectively kill the target cancer cells (U87 expressing IL13Rα2).

B1: CAR-containing polypeptide #6 (IL13Rα2-specific chimeric antigen receptor with human IL13.E11K.R64D.S67D.R107K binding domain, 4-1BB, IL-7Rα part, mutant CD3ζ) (receptor)
chain: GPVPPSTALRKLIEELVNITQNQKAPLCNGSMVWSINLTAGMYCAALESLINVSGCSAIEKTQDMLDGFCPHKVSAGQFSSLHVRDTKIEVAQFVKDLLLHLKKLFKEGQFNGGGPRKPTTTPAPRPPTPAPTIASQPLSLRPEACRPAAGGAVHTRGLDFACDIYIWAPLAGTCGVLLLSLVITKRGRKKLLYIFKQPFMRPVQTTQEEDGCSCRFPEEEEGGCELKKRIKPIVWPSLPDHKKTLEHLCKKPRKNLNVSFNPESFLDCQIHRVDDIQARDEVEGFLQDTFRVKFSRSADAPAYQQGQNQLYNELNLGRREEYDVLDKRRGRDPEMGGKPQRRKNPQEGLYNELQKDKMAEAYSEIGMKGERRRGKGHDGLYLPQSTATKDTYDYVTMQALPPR
notes: Expressed on human T cells; also called CAR-T #6; PG13/#6
With B1, the binding result is listed as “binds”.

B2: CAR-containing polypeptide #12 (IL13Rα2-specific chimeric antigen receptor with human IL13.E11K.R64D.S67D.R107K binding domain, 4-1BB, IL-2Rβ part, mutant CD3ζ) (receptor)
chain: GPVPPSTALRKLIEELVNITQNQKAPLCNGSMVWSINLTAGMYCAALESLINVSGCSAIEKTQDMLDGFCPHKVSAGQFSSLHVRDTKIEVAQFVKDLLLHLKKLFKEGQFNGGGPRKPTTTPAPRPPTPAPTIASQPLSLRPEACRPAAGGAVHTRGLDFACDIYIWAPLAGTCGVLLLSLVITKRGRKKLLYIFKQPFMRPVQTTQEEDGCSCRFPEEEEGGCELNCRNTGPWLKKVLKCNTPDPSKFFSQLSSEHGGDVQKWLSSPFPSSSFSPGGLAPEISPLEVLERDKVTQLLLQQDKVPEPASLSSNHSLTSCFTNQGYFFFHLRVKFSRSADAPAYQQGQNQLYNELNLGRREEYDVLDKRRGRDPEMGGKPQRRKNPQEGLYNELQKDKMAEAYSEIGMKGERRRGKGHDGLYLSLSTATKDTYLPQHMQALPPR
notes: Expressed on human T cells; also called CAR-T #12; PG13/#12
As to B2, the binding result is listed as “binds”.
